Results reported in patent US20240279356A1 (Xencor, published 2024).

Experiments:
human MSLN antigen = biological target: T1, human MSLN antigen (human, UniProt Q13421 296-580, limits assumed); test: Octet BLI on human MSLN antigen (Example 2B(a)); KD quoted in the FIG. 35 legend
T1 construct: Soluble antigen for BLI; also called Mesothelin; MESO
Source text: Variants of MESO-C were engineered by introducing point substitutions into the variable heavy region (VH) and the variable light region (VL) to generate 11 VH variants and 16 VL variants (sequences for which are depicted in FIG. 18 as H1.1-H1.13 and in FIG. 19 as L1.1-L1.18). An additional 4 VL variants were generated by combining useful point substitutions (sequences for which are depicted in FIG. 19 as L1.19-L1.22). WT and variant variable heavy regions were paired with WT and variant variable light regions to generate variant variable regions (Fvs) which were produced in the context of anti-MSLN×anti-CD3 bispecific antibodies. The bispecific antibodies were screened for MSLN binding affinity using Octet®, a BioLayer Interferometry (BLI)-based method. Experimental steps for Octet® generally include the following: Immobilization (capture of ligand to a biosensor); Association (dipping of ligand-coated biosensors into wells containing the analyte); and Dissociation (returning of biosensors to well containing buffer). In an initial screening, anti-human Fc sensors were used to capture the bispecific mAbs and dipped into human MSLN antigen (one concentration to screen large library). The resulting dissociation constant of illustrative variants (KD), association rate (kₐ), dissociation rate (kd), as well as sensorgram response are depicted in FIG. 20. In further screening of favorite variants identified in the initial screen (and combination variants), bispecific mAbs were dipped into multiple concentrations of human MSLN antigen, data for which are depicted in FIG. 21 (from various screens).

[1] = biological target: T2, MSLN on OVCAR8 (MSLN^high) and other cancer cell lines (UniProt Q13421 296-598); test: flow cytometry on OVCAR8 cells, detected with A647-labelled anti-human Fc mAb
T2 construct: whole, on cells; Endogenous surface MSLN; also called MSLN^high OVCAR8 cells; MSLN^low SKOV3 and HT29 cells
Method: Next, the effect of MSLN binding affinity was investigated. 100,000 OVCAR8 (MSLN^high) cells were treated with the indicated concentrations of the indicated test articles. […] Further, XENP32852 and XENP32853 which differ only in CD3 binding affinity have identical binding to OVCAR8 cells confirming that avid binding is due to the MSLN binding domain.

T1 sequence (Q13421 other isoform, or with tags, fused parts or gaps limits assumed): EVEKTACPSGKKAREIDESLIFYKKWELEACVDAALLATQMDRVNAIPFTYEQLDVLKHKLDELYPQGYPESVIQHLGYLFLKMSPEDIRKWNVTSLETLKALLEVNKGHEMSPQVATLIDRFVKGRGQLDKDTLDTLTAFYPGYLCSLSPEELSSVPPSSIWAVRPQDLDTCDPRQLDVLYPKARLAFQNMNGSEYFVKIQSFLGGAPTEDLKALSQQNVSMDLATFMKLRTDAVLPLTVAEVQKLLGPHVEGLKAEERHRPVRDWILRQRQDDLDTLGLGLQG
T2 sequence (Q13421 other isoform, or with tags, fused parts or gaps limits assumed): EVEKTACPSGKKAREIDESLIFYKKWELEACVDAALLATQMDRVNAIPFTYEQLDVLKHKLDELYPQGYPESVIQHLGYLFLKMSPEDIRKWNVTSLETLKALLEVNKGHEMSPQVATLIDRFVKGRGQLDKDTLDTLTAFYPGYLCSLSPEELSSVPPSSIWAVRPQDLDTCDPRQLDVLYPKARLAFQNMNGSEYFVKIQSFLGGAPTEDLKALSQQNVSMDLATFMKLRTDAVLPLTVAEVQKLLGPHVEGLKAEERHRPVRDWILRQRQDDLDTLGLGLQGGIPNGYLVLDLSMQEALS

Kd (human MSLN antigen) [nM] | EC50 (read off the curve) [1] [µg/mL] | Binder
0.28 | ~0.04 | XENP31717 (bispecific antibody, 2+1 Fab2-scFv-Fc anti-MSLN x anti-CD3) heavy 1: QVQLVQSGAEVKKPGASVKVSCKASGYTFTSYWMHWVRQAPGQGLEWMGMIHPNSDNTIYYEKFQGRVTMTVDKSISTAYMELSRLRSDDTAVYYCAIIITPVVPKFDYWGQGTLVTVSSASTKGPSVFPLAPSSKSTSGGTAALGCLVKDYFPEPVTVSWNSGALTSGVHTFPAVLQSSGLYSLSSVVTVPSSSLGTQTYICNVNHKPSDTKVDKKVEPKSCDKTHTCPPCPAPPVAGPSVFLFPPKPKDTLMISRTPEVTCVVVDVKHEDPEVKFNWYVDGVEVHNAKTKPREEEYNSTYRVVSVLTVLHQDWLNGKEYKCKVSNKALPAPIEKTISKAKGQPREPQVYTLPPSREEMTKNQVSLTCDVSGFYPSDIAVEWESDGQPENNYKTTPPVLDSDGSFFLYSKLTVDKSRWEQGDVFSCSVMHEALHNHYTQKSLSLSPGK heavy 2: QVQLVQSGAEVKKPGASVKVSCKASGYTFTSYWMHWVRQAPGQGLEWMGMIHPNSDNTIYYEKFQGRVTMTVDKSISTAYMELSRLRSDDTAVYYCAIIITPVVPKFDYWGQGTLVTVSSASTKGPSVFPLAPSSKSTSGGTAALGCLVKDYFPEPVTVSWNSGALTSGVHTFPAVLQSSGLYSLSSVVTVPSSSLGTQTYICNVNHKPSNTKVDKKVEPKSCGGGGSGGGGSQAVVTQEPSLTVSPGGTVTLTCGSSTGAVTTSNYANWVQQKPGKSPRGLIGGTNKRAPGVPARFSGSLLGGKAALTISGAQPEDEADYYCALWYSNHWVFGGGTKLTVLGKPGSGKPGSGKPGSGKPGSEVQLVESGGGLVQPGGSLRLSCAASGFTFSTYAMNWVRQAPGKGLEWVGRIRSKANNYATYYADSVKGRFTISRDDSKNTLYLQMNSLRAEDTAVYYCVRHGNFGDSYVSWFAYWGQGTLVTVSSGGGGSGGGGSKTHTCPPCPAPPVAGPSVFLFPPKPKDTLMISRTPEVTCVVVDVKHEDPEVKFNWYVDGVEVHNAKTKPREEQYNSTYRVVSVLTVLHQDWLNGKEYKCKVSNKALPAPIEKTISKAKGQPREPQVYTLPPSREQMTKNQVKLTCLVKGFYPSDIAVEWESNGQPENNYKTTPPVLDSDGSFFLYSKLTVDKSRWQQGNVFSCSVMHEALHNHYTQKSLSLSPGK light: DIVMTQSPDSLAVSLGERATINCKASHDVGTSVAWYQQKPGQSPKLLIYWASTRHTGVPDRFTGSGSGTDFTLTISSLQAEDVAVYFCQQYSSYPLTFGAGTKLEIKRTVAAPSVFIFPPSDEQLKSGTASVVCLLNNFYPREAKVQWKVDNALQSGNSQESVTEQDSKDSTYSLSSTLTLSKADYEKHKVYACEVTHQGLSSPVTKSFNRGEC
0.45 | ~0.05 | XENP32745 (bispecific antibody, 2+1 Fab2-scFv-Fc) heavy 1: QVQLVQSGAEVKKPGASVKVSCKASGYTFTSYWMHWVRQAPGQGLEWMGMIHPNSDNTIYYEKFQGRVTMTVDKSISTAYMELSRLRSDDTAVYYCAIIITPVVPKFDYWGQGTLVTVSSASTKGPSVFPLAPSSKSTSGGTAALGCLVKDYFPEPVTVSWNSGALTSGVHTFPAVLQSSGLYSLSSVVTVPSSSLGTQTYICNVNHKPSDTKVDKKVEPKSCDKTHTCPPCPAPPVAGPSVFLFPPKPKDTLMISRTPEVTCVVVDVKHEDPEVKFNWYVDGVEVHNAKTKPREEEYNSTYRVVSVLTVLHQDWLNGKEYKCKVSNKALPAPIEKTISKAKGQPREPQVYTLPPSREEMTKNQVSLTCDVSGFYPSDIAVEWESDGQPENNYKTTPPVLDSDGSFFLYSKLTVDKSRWEQGDVFSCSVMHEALHNHYTQKSLSLSPGK heavy 2: QVQLVQSGAEVKKPGASVKVSCKASGYTFTSYWMHWVRQAPGQGLEWMGMIHPNSDNTIYYEKFQGRVTMTVDKSISTAYMELSRLRSDDTAVYYCAIIITPVVPKFDYWGQGTLVTVSSASTKGPSVFPLAPSSKSTSGGTAALGCLVKDYFPEPVTVSWNSGALTSGVHTFPAVLQSSGLYSLSSVVTVPSSSLGTQTYICNVNHKPSNTKVDKKVEPKSCGGGGSGGGGSQAVVTQEPSLTVSPGGTVTLTCGSSTGAVTTSNYANWVQQKPGKSPRGLIGGTNKRAPGVPARFSGSLLGGKAALTISGAQPEDEADYYCALWYSNHWVFGGGTKLTVLGKPGSGKPGSGKPGSGKPGSEVQLVESGGGLVQPGGSLRLSCAASGFTFSTYAMNWVRQAPGKGLEWVGRIRSKANNYATYYADSVKGRFTISRDDSKNTLYLQMNSLRAEDTAVYYCVRHGNFGDSYVSWFAYWGQGTLVTVSSGGGGSGGGGSKTHTCPPCPAPPVAGPSVFLFPPKPKDTLMISRTPEVTCVVVDVKHEDPEVKFNWYVDGVEVHNAKTKPREEQYNSTYRVVSVLTVLHQDWLNGKEYKCKVSNKALPAPIEKTISKAKGQPREPQVYTLPPSREQMTKNQVKLTCLVKGFYPSDIAVEWESNGQPENNYKTTPPVLDSDGSFFLYSKLTVDKSRWQQGNVFSCSVMHEALHNHYTQKSLSLSPGK light: DIVMTQSPDSLAVSLGERATINCKASHSVGTSVAWYQQKPGQSPKLLIYWASTRHTGVPDRFTGSGSGTDFTLTISSLQAEDVAVYFCQQYSSYPLTFGAGTKLEIKRTVAAPSVFIFPPSDEQLKSGTASVVCLLNNFYPREAKVQWKVDNALQSGNSQESVTEQDSKDSTYSLSSTLTLSKADYEKHKVYACEVTHQGLSSPVTKSFNRGEC
0.74 | ~0.04 | XENP32748 (bispecific antibody, 2+1 Fab2-scFv-Fc) heavy 1: QVQLVQSGAEVKKPGASVKVSCKASGYTFTSYWMHWVRQAPGQGLEWMGMIHPNSDNTIYYEKFQGRVTMTVDKSISTAYMELSRLRSDDTAVYYCAIIITPVVPKFDYWGQGTLVTVSSASTKGPSVFPLAPSSKSTSGGTAALGCLVKDYFPEPVTVSWNSGALTSGVHTFPAVLQSSGLYSLSSVVTVPSSSLGTQTYICNVNHKPSDTKVDKKVEPKSCDKTHTCPPCPAPPVAGPSVFLFPPKPKDTLMISRTPEVTCVVVDVKHEDPEVKFNWYVDGVEVHNAKTKPREEEYNSTYRVVSVLTVLHQDWLNGKEYKCKVSNKALPAPIEKTISKAKGQPREPQVYTLPPSREEMTKNQVSLTCDVSGFYPSDIAVEWESDGQPENNYKTTPPVLDSDGSFFLYSKLTVDKSRWEQGDVFSCSVMHEALHNHYTQKSLSLSPGK heavy 2: QVQLVQSGAEVKKPGASVKVSCKASGYTFTSYWMHWVRQAPGQGLEWMGMIHPNSDNTIYYEKFQGRVTMTVDKSISTAYMELSRLRSDDTAVYYCAIIITPVVPKFDYWGQGTLVTVSSASTKGPSVFPLAPSSKSTSGGTAALGCLVKDYFPEPVTVSWNSGALTSGVHTFPAVLQSSGLYSLSSVVTVPSSSLGTQTYICNVNHKPSNTKVDKKVEPKSCGGGGSGGGGSQAVVTQEPSLTVSPGGTVTLTCGSSTGAVTTSNYANWVQQKPGKSPRGLIGGTNKRAPGVPARFSGSLLGGKAALTISGAQPEDEADYYCALWYSNHWVFGGGTKLTVLGKPGSGKPGSGKPGSGKPGSEVQLVESGGGLVQPGGSLRLSCAASGFTFSTYAMNWVRQAPGKGLEWVGRIRSKANNYATYYADSVKGRFTISRDDSKNTLYLQMNSLRAEDTAVYYCVRHGNFGDSYVSWFAYWGQGTLVTVSSGGGGSGGGGSKTHTCPPCPAPPVAGPSVFLFPPKPKDTLMISRTPEVTCVVVDVKHEDPEVKFNWYVDGVEVHNAKTKPREEQYNSTYRVVSVLTVLHQDWLNGKEYKCKVSNKALPAPIEKTISKAKGQPREPQVYTLPPSREQMTKNQVKLTCLVKGFYPSDIAVEWESNGQPENNYKTTPPVLDSDGSFFLYSKLTVDKSRWQQGNVFSCSVMHEALHNHYTQKSLSLSPGK light: DIVMTQSPDSLAVSLGERATINCKASHDVLTSVAWYQQKPGQSPKLLIYWASTRHTGVPDRFTGSGSGTDFTLTISSLQAEDVAVYFCQQYSSYPLTFGAGTKLEIKRTVAAPSVFIFPPSDEQLKSGTASVVCLLNNFYPREAKVQWKVDNALQSGNSQESVTEQDSKDSTYSLSSTLTLSKADYEKHKVYACEVTHQGLSSPVTKSFNRGEC
